These are literature values, as cited in publication PMC12198371 (Nature Communications, 2025).

The data set concerns the target α-chymotrypsin. The following applies: natural inhibitor, Fig. 9d.

B1: BBI G.m.: Bowman–Birk inhibitor (BBI) from soybean Glycine max (71 amino acids) (protein, UniProt P01055 40-110, looked up)
Bowman-Birk type proteinase …: DDESSKPCCDQCACTKSNPPQCRCSDMRLNSCHSACKSCICALSYPAQCFCVDITDFCYEPCKPSEDDKEN
Consider B1, for which the inhibition constant Ki (as a rule, the dissociation constant of the complex between target and ligand, obtained from inhibition or displacement) is 6 nM.
